Key:
Test in all cases: EMSA
Details in all cases: EMSA: 10 mM Tris-HCl pH 8.0, 60 mM NaCl, 10 mM KCl, 5 mM MgCl2, 1 mM DTT, 0.05% NP40, 10% glycerol, footprint: 5 mM Tris-HCl pH 8.0, 60 mM NaCl, 5 mM KCl
[1] = target: T1, HrcA (Campylobacter jejuni NCTC 11168) (UniProt Q9PPG2)
T1 sequence: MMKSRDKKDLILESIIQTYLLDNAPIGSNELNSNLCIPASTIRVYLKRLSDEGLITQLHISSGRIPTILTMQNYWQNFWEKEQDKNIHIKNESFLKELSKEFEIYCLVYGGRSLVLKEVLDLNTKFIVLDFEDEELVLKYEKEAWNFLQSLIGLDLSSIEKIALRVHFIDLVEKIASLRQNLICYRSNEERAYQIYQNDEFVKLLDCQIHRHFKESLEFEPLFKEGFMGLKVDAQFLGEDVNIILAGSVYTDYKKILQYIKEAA

[2] = target: T2, HrcA;HspR (Campylobacter jejuni NCTC 11168;Campylobacter jejuni NCTC 11168) (UniProt Q9PPG2+Q0P926)
T2 sequence 1: T1 sequence
T2 sequence 2: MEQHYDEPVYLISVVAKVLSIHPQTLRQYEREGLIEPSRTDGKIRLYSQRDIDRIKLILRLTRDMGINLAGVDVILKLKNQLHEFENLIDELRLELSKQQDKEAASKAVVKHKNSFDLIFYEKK

[3] = target: T3, HspR (Campylobacter jejuni NCTC 11168) (UniProt Q0P926)
T3 sequence: T2 sequence 2

Row | Sequence | binding [1] | binding [2] | binding [3]
1 | GGATCCGCACAACAACAAAAGCTACAATGCCATAAAAAATCTTTTTCATTTTTATCCTTTAGTTTATTTTATAAAATAACTTTAGTCTATAAAACTAAACTTTTATAAATATTTTAATTTAAAGTATTGACAAAATTCATTTTTTATAGTATGATATTATCACTCTAAATTAAAGAGTGCTAAAATCAATATTTTTAAGGATGGACAAAAATGAATTTTCAACCTTTAGGAAAGCGTGTTCTAGTTAAACGCGCTCGAG (double strand) [Pgro promoter probe (EMSA)] | binds | binds | binds
2 | GGATCCCTTGCAGCAAATAAAGCACTTGCTAAACTTAATGATAAAAAAATCTTTTTCATTTCATTTCCTTTTGTTCTTAAAGATAAATTATCTCGTAAAATATTTTACTGTCTTCATAGTATAAAACCGAAAATTTACAAAATTGTAAATAAAACCTTGAGTGATAAAAATTTATAAAACTTGATTGACTTAGGCTAAAGTTTATGTTATAATTTAATCCTCTATATAATCAAGTAAAAATTTTTAAGGAAATATAACATGAATAGTTTATACGAAACTCTTGGAGTTAGCCTCGAG (double strand) [Pcbp promoter probe (EMSA)] | – | – | binds

Source: paper PMC8533110
